The supplement of paper PMC9112550, “Optimization of the antimicrobial peptide Bac7 by deep mutational scanning” (BMC Biology, 2022)
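Also: peptides expressed intracellularly from a pBAD plasmid library in pooled LB shake-flask culture, induced with 0.3% L-arabinose, DNA abundance read by NGS, three biological replicates, DESeq2 with apeglm shrinkage.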

These sequences were tested on Escherichia coli TOP10 (assay: shrunken log2 fold change of peptide-encoding DNA abundance (4.5 h post-induction vs induction); higher = less antimicrobial activity (less host growth inhibition)). Settings: time post-induction: 4.5 h; library: site-saturation at positions 5, 18, 19, 20.
In the case of RRIRQRPPRLPRPRPRPSRDPRP, the “shrunken log2 fold change” value is reported as -0.141. In the case of RRIRLRPPRLPRPRPRPYQRPRP, the “shrunken log2 fold change” value is reported as -0.393. In the case of RRIRWRPPRLPRPRPRPEPVPRP, the “shrunken log2 fold change” value is reported as -0.0131. RRIRPRPPRLPRPRPRPPEAPRP was tested, and the “shrunken log2 fold change” value was 0.0126. For RRIRHRPPRLPRPRPRPFEPPRP, the “shrunken log2 fold change” value was 0.00846. For RRIRLRPPRLPRPRPRPCWIPRP, the “shrunken log2 fold change” value was -0.241. With RRIRFRPPRLPRPRPRPNYCPRP the “shrunken log2 fold change” value was -0.499. For RRIRVRPPRLPRPRPRPIHLPRP, the “shrunken log2 fold change” value was -0.197. RRIRIRPPRLPRPRPRPEWCPRP was tested, and the “shrunken log2 fold change” value was 0.0249. With RRIRDRPPRLPRPRPRPLRTPRP the “shrunken log2 fold change” value was 0.215. With RRIRLRPPRLPRPRPRPFYIPRP the “shrunken log2 fold change” value was -0.865. With RRIRDRPPRLPRPRPRPTWTPRP the “shrunken log2 fold change” value was -0.043. For RRIRGRPPRLPRPRPRPDWAPRP, the “shrunken log2 fold change” value was 1.22. RRIRMRPPRLPRPRPRPSFFPRP was tested, and the “shrunken log2 fold change” value was 0.0666. For RRIRHRPPRLPRPRPRPRFSPRP, the “shrunken log2 fold change” value was -0.137. With RRIRDRPPRLPRPRPRPNIAPRP the “shrunken log2 fold change” value was 0.169. RRIRDRPPRLPRPRPRPRHVPRP was tested, and the “shrunken log2 fold change” value was 0.153. RRIRFRPPRLPRPRPRPYKMPRP was tested, and the “shrunken log2 fold change” value was -0.62. With RRIRPRPPRLPRPRPRPAQHPRP the “shrunken log2 fold change” value was 0.223. In the case of RRIRDRPPRLPRPRPRPFYEPRP, the “shrunken log2 fold change” value is reported as -0.262. For RRIRDRPPRLPRPRPRPGTSPRP, the “shrunken log2 fold change” value was -0.0025. For RRIRPRPPRLPRPRPRPKSNPRP, the “shrunken log2 fold change” value was -0.37. In the case of RRIRGRPPRLPRPRPRPKGCPRP, the “shrunken log2 fold change” value is reported as 2.83. For RRIRIRPPRLPRPRPRPIDNPRP, the “shrunken log2 fold change” value was -0.0769. With RRIRLRPPRLPRPRPRPDPGPRP the “shrunken log2 fold change” value was -0.146. In the case of RRIRDRPPRLPRPRPRPIMTPRP, the “shrunken log2 fold change” value is reported as 0.107. RRIRDRPPRLPRPRPRPCWAPRP was tested, and the “shrunken log2 fold change” value was 0.125. For RRIRPRPPRLPRPRPRPRDCPRP, the “shrunken log2 fold change” value was 0.277. In the case of RRIRERPPRLPRPRPRPFAGPRP, the “shrunken log2 fold change” value is reported as -1.68. For RRIRNRPPRLPRPRPRPEHMPRP, the “shrunken log2 fold change” value was -0.0791. In the case of RRIRQRPPRLPRPRPRPKQEPRP, the “shrunken log2 fold change” value is reported as -0.0419. For RRIRLRPPRLPRPRPRPLGIPRP, the “shrunken log2 fold change” value was -0.199. For RRIRVRPPRLPRPRPRPWVQPRP, the “shrunken log2 fold change” value was -0.021. With RRIRTRPPRLPRPRPRPDHSPRP the “shrunken log2 fold change” value was -0.0596. With RRIRKRPPRLPRPRPRPICVPRP the “shrunken log2 fold change” value was 0.0188. In the case of RRIRCRPPRLPRPRPRPYWRPRP, the “shrunken log2 fold change” value is reported as -0.0756. With RRIRVRPPRLPRPRPRPIQFPRP the “shrunken log2 fold change” value was -0.0307. With RRIRSRPPRLPRPRPRPYRTPRP the “shrunken log2 fold change” value was 0.00951. For RRIRPRPPRLPRPRPRPSGTPRP, the “shrunken log2 fold change” value was 0.669. With RRIRNRPPRLPRPRPRPNLEPRP the “shrunken log2 fold change” value was 0.0441. In the case of RRIRTRPPRLPRPRPRPMRTPRP, the “shrunken log2 fold change” value is reported as 0.276. For RRIRSRPPRLPRPRPRPCEHPRP, the “shrunken log2 fold change” value was 0.135. For RRIRTRPPRLPRPRPRPFLSPRP, the “shrunken log2 fold change” value was -0.195. In the case of RRIRNRPPRLPRPRPRPHYLPRP, the “shrunken log2 fold change” value is reported as -0.218. With RRIRCRPPRLPRPRPRPFNPPRP the “shrunken log2 fold change” value was -0.558. In the case of RRIRARPPRLPRPRPRPDHKPRP, the “shrunken log2 fold change” value is reported as -0.312. In the case of RRIRRRPPRLPRPRPRPCATPRP, the “shrunken log2 fold change” value is reported as 0.586. With RRIRIRPPRLPRPRPRPWTNPRP the “shrunken log2 fold change” value was -0.00152. In the case of RRIRTRPPRLPRPRPRPSVGPRP, the “shrunken log2 fold change” value is reported as -0.055. With RRIRDRPPRLPRPRPRPVQIPRP the “shrunken log2 fold change” value was -0.0711. In the case of RRIRPRPPRLPRPRPRPKICPRP, the “shrunken log2 fold change” value is reported as -0.0701. In the case of RRIRGRPPRLPRPRPRPNCGPRP, the “shrunken log2 fold change” value is reported as 0.0147. With RRIRQRPPRLPRPRPRPFLMPRP the “shrunken log2 fold change” value was -0.421. In the case of RRIRTRPPRLPRPRPRPWIYPRP, the “shrunken log2 fold change” value is reported as -0.0134. With RRIRTRPPRLPRPRPRPAVTPRP the “shrunken log2 fold change” value was 0.102. In the case of RRIRRRPPRLPRPRPRPNCWPRP, the “shrunken log2 fold change” value is reported as 0.228. RRIRCRPPRLPRPRPRPHWTPRP was tested, and the “shrunken log2 fold change” value was -0.226. For RRIRCRPPRLPRPRPRPIVKPRP, the “shrunken log2 fold change” value was 0.0118. With RRIRHRPPRLPRPRPRPVTMPRP the “shrunken log2 fold change” value was -0.513. With RRIRVRPPRLPRPRPRPNDYPRP the “shrunken log2 fold change” value was -0.00419. With RRIRSRPPRLPRPRPRPAMVPRP the “shrunken log2 fold change” value was -0.274. In the case of RRIRMRPPRLPRPRPRPEFAPRP, the “shrunken log2 fold change” value is reported as 0.679. RRIRWRPPRLPRPRPRPDQYPRP was tested, and the “shrunken log2 fold change” value was -0.154. With RRIRMRPPRLPRPRPRPSAFPRP the “shrunken log2 fold change” value was 1.26. With RRIRCRPPRLPRPRPRPGSQPRP the “shrunken log2 fold change” value was 0.0392. RRIRKRPPRLPRPRPRPICWPRP was tested, and the “shrunken log2 fold change” value was 0.239. In the case of RRIRQRPPRLPRPRPRPGSEPRP, the “shrunken log2 fold change” value is reported as 0.0985. For RRIRDRPPRLPRPRPRPNMSPRP, the “shrunken log2 fold change” value was -0.0444. RRIRMRPPRLPRPRPRPTCKPRP was tested, and the “shrunken log2 fold change” value was 2.25. For RRIRERPPRLPRPRPRPVKRPRP, the “shrunken log2 fold change” value was 0.025. In the case of RRIRARPPRLPRPRPRPSPDPRP, the “shrunken log2 fold change” value is reported as 0.553. RRIRSRPPRLPRPRPRPEYDPRP was tested, and the “shrunken log2 fold change” value was 0.0801. With RRIRQRPPRLPRPRPRPARDPRP the “shrunken log2 fold change” value was 0.0373. RRIRWRPPRLPRPRPRPYEIPRP was tested, and the “shrunken log2 fold change” value was -0.402. With RRIRKRPPRLPRPRPRPTGAPRP the “shrunken log2 fold change” value was 1.09. With RRIRSRPPRLPRPRPRPYQGPRP the “shrunken log2 fold change” value was -0.129. For RRIRCRPPRLPRPRPRPFQAPRP, the “shrunken log2 fold change” value was 0.0554. In the case of RRIRDRPPRLPRPRPRPCGGPRP, the “shrunken log2 fold change” value is reported as 0.132. RRIRTRPPRLPRPRPRPVVQPRP was tested, and the “shrunken log2 fold change” value was -0.062. RRIRERPPRLPRPRPRPRVAPRP was tested, and the “shrunken log2 fold change” value was 0.343. RRIRDRPPRLPRPRPRPSAEPRP was tested, and the “shrunken log2 fold change” value was 0.162. RRIRLRPPRLPRPRPRPFGCPRP was tested, and the “shrunken log2 fold change” value was -0.138. With RRIRGRPPRLPRPRPRPAMRPRP the “shrunken log2 fold change” value was 1.17. In the case of RRIRDRPPRLPRPRPRPDGPPRP, the “shrunken log2 fold change” value is reported as 0.0462. In the case of RRIRARPPRLPRPRPRPIEFPRP, the “shrunken log2 fold change” value is reported as -0.0488. In the case of RRIRTRPPRLPRPRPRPMEKPRP, the “shrunken log2 fold change” value is reported as -0.00136. With RRIRDRPPRLPRPRPRPVGHPRP the “shrunken log2 fold change” value was 0.423. For RRIRERPPRLPRPRPRPLIRPRP, the “shrunken log2 fold change” value was -0.0588. For RRIRLRPPRLPRPRPRPRTMPRP, the “shrunken log2 fold change” value was -0.0102. RRIRGRPPRLPRPRPRPQHWPRP was tested, and the “shrunken log2 fold change” value was 0.165. In the case of RRIRWRPPRLPRPRPRPKDKPRP, the “shrunken log2 fold change” value is reported as 0.077. For RRIRTRPPRLPRPRPRPMKDPRP, the “shrunken log2 fold change” value was -0.303. In the case of RRIRFRPPRLPRPRPRPMQIPRP, the “shrunken log2 fold change” value is reported as -0.147. In the case of RRIRERPPRLPRPRPRPHNGPRP, the “shrunken log2 fold change” value is reported as 0.0109. RRIRYRPPRLPRPRPRPETVPRP was tested, and the “shrunken log2 fold change” value was -0.0477. With RRIRIRPPRLPRPRPRPILRPRP the “shrunken log2 fold change” value was -0.484. RRIRKRPPRLPRPRPRPCVQPRP was tested, and the “shrunken log2 fold change” value was -0.038. With RRIRFRPPRLPRPRPRPQSIPRP the “shrunken log2 fold change” value was 0.0159. For RRIRSRPPRLPRPRPRPGIGPRP, the “shrunken log2 fold change” value was 1.62. RRIRERPPRLPRPRPRPCPYPRP was tested, and the “shrunken log2 fold change” value was -0.367. RRIRRRPPRLPRPRPRPVRNPRP was tested, and the “shrunken log2 fold change” value was 0.146. In the case of RRIRYRPPRLPRPRPRPETPPRP, the “shrunken log2 fold change” value is reported as 0.156. In the case of RRIRSRPPRLPRPRPRPQWLPRP, the “shrunken log2 fold change” value is reported as -0.32. For RRIRRRPPRLPRPRPRPIWCPRP, the “shrunken log2 fold change” value was -0.0104. In the case of RRIRTRPPRLPRPRPRPKQEPRP, the “shrunken log2 fold change” value is reported as -0.0429. For RRIRVRPPRLPRPRPRPAVFPRP, the “shrunken log2 fold change” value was 0.265. RRIRMRPPRLPRPRPRPITAPRP was tested, and the “shrunken log2 fold change” value was 0.244. With RRIRHRPPRLPRPRPRPTFVPRP the “shrunken log2 fold change” value was -0.152. With RRIRHRPPRLPRPRPRPSYCPRP the “shrunken log2 fold change” value was 0.00287.
